Values quoted from earlier work as cited in patent US20250326839A1, “TREATMENT OF DISEASES RELATED TO COLONY-STIMULATING FACTOR 1 RECEPTOR DYSFUNCTION USING TREM2 AGONISTS” (Vigil Neuroscience, Inc., priority 2020, published 2025).
Residue numbers refer to the chain shown, from its start. In names and notes the source's numbering stands.

T1: TREM2 (Homo sapiens, UniProt Q9NZC2)
T1 sequence (Q9NZC2 19-230): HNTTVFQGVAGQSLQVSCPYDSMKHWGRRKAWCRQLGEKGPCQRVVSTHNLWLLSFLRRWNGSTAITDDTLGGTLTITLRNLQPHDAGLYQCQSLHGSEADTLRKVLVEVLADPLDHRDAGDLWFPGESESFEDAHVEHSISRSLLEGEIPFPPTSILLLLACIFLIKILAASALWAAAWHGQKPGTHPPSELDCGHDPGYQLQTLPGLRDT

B1: V36: 6E7 variant: VH I34L, Q99S; VL L54R, F94Y (antibody, V domains shown)
VH: EVQLVQSGAEVKKPGESLKISCKGSGYSFTSYWLAWVRQMPGKGLEWMGIIYPGDSDTRYSPSFQGQVTISADKSISTAYLQWSSLKASDTAMYFCARSRTFYYDSSDYFDYWGQGTLVTVSS
VL: DIQMTQSPSSVSASVGDRVTITCRASQGISSWLAWYQQKPGKAPKLLIYAASSRQNGVPSRFSGSGSGTDFTLTISSLQPEDFATYFCQQADSYPRTFGQGTKLEIK
B2: V51: 6E7 variant: VH T58V, Q99G, Y112N; VL L54R (antibody, V domains shown)
VH: B1 VH with L34I, T58V, S99G, Y112N
VL: B1 VL with Y94F
B3: V38: 6E7 variant: VH T30G, T58V; VL L54R, F94H (antibody, V domains shown)
VH: B1 VH with T30G, L34I, T58V, S99Q
VL: B1 VL with Y94H
B4: V40: 6E7 variant: VH T30G, T58V, F110S; VL N56L, S93R (antibody, V domains shown)
VH: B1 VH with T30G, L34I, T58V, S99Q, F110S
VL: B1 VL with R54L, N56L, S93R, Y94F
B5: V72: 6E7 variant: VH A35G, Q99G; VL Q55V, F94Y (antibody, V domains shown)
VH: B1 VH with L34I, A35G, S99G
VL: B1 VL with R54L, Q55V
B6: V39: 6E7 variant: VH T30G, S61N, Q99G; VL Q55V, F94S (antibody, V domains shown)
VH: B1 VH with T30G, L34I, S61N, S99G
VL: B1 VL with R54L, Q55V, Y94S
B7: V37: 6E7 variant: VH F29H, Q65A, Q99S; VL N56W, F94Y (antibody, V domains shown)
VH: B1 VH with F29H, L34I, Q65A
VL: B1 VL with R54L, N56W
B8: V49: 6E7 variant: VH T30N, I50T, Y60L, Q99S; VL L54R, F94Y (antibody, V domains shown)
VH: B1 VH with T30N, L34I, I50T, Y60L
VL: B1 VL
B9: V50: 6E7 variant: VH T30G, I50V, F110L; VL L54R, F94L (antibody, V domains shown)
VH: B1 VH with T30G, L34I, I50V, S99Q, F110L
VL: B1 VL with Y94L
B10: V61: 6E7 variant: VH T30S, S61N, Q99G; VL Q55V, F94L (antibody, V domains shown)
VH: B1 VH with T30S, L34I, S61N, S99G
VL: B1 VL with R54L, Q55V, Y94L
B11: V52: 6E7 variant: VH T30E, Q99G; VL N56R, S93R (antibody, V domains shown)
VH: B1 VH with T30E, L34I, S99G
VL: B1 VL with R54L, N56R, S93R, Y94F
B12: V73: 6E7 variant: VH T30G, S63G, Q99G; VL L54R, F94Y (antibody, V domains shown)
VH: B1 VH with T30G, L34I, S63G, S99G
VL: B1 VL
B13: V74: 6E7 variant: VH T30A, T58V, Q99G; VL N56L (antibody, V domains shown)
VH: B1 VH with T30A, L34I, T58V, S99G
VL: B1 VL with R54L, N56L, Y94F
B14: V75: 6E7 variant: VH Q99G; VL N56A, F94Y (antibody, V domains shown)
VH: B1 VH with L34I, S99G
VL: B1 VL with R54L, N56A
B15: V62: 6E7 variant: VH T30G, S61A, D108G; VL N56R, Q89G (antibody, V domains shown)
VH: B1 VH with T30G, L34I, S61A, S99Q, D108G
VL: B1 VL with R54L, N56R, Q89G, Y94F
B16: V48: 6E7 variant: VH T30G, T58V, Q99M; VL N56T, F94L (antibody, V domains shown)
VH: B1 VH with T30G, L34I, T58V, S99M
VL: B1 VL with R54L, N56T, Y94L
B17: V63: 6E7 variant: VH T30R, Q99S; VL N56R, S93R (antibody, V domains shown)
VH: B1 VH with T30R, L34I
VL: B1 VL with R54L, N56R, S93R, Y94F
B18: V64: 6E7 variant: VH T30Q, Q99G; VL Q55A, F94Y (antibody, V domains shown)
VH: B1 VH with T30Q, L34I, S99G
VL: B1 VL with R54L, Q55A
B19: V60: 6E7 variant: VH S28H, T58V, F110S; VL N56R, Q89G (antibody, V domains shown)
VH: B1 VH with S28H, L34I, T58V, S99Q, F110S
VL: B1 VL with R54L, N56R, Q89G, Y94F

Target: T1, TREM2
Details: 1st screen, 10 nM Ab concentration (values not marked *); cited from earlier work

Molecule	Binding Signal (fold over 6E7 parental antibody) 1st screen 110 nM or 10 nM
B1	3.38 fold over 6E7 parental antibod
B2	2.81 fold over 6E7 parental antibod
B3	4.34 fold over 6E7 parental antibod
B4	4.48 fold over 6E7 parental antibod
B5	3.64 fold over 6E7 parental antibod
B6	6.15 fold over 6E7 parental antibod
B7	3.46 fold over 6E7 parental antibod
B8	6.51 fold over 6E7 parental antibod
B9	4.10 fold over 6E7 parental antibod
B10	5.08 fold over 6E7 parental antibod
B11	3.00 fold over 6E7 parental antibod
B12	5.12 fold over 6E7 parental antibod
B13	3.94 fold over 6E7 parental antibod
B14	4.64 fold over 6E7 parental antibod
B15	2.49 fold over 6E7 parental antibod
B16	2.42 fold over 6E7 parental antibod
B17	3.76 fold over 6E7 parental antibod
B18	5.41 fold over 6E7 parental antibod
B19	3.26 fold over 6E7 parental antibod

Same assay, conditions: 2nd screen, 2 nM; cited from earlier work

Molecule	Binding Signal (fold over 6E7 parental antibody) 2nd screen 2 nM
B1	4.00 fold over 6E7 parental antibod
B2	1.83 fold over 6E7 parental antibod
B3	3.44 fold over 6E7 parental antibod
B4	3.41 fold over 6E7 parental antibod
B5	2.50 fold over 6E7 parental antibod
B6	5.11 fold over 6E7 parental antibod
B7	3.69 fold over 6E7 parental antibod
B8	5.02 fold over 6E7 parental antibod
B9	3.39 fold over 6E7 parental antibod
B10	3.63 fold over 6E7 parental antibod
B11	1.78 fold over 6E7 parental antibod
B12	4.17 fold over 6E7 parental antibod
B13	2.54 fold over 6E7 parental antibod
B14	3.74 fold over 6E7 parental antibod
B15	1.87 fold over 6E7 parental antibod
B16	2.30 fold over 6E7 parental antibod
B17	4.91 fold over 6E7 parental antibod
B18	4.88 fold over 6E7 parental antibod
B19	3.35 fold over 6E7 parental antibod

Same assay, conditions: 2nd screen, 10 nM; cited from earlier work

Molecule	Binding Signal (fold over 6E7 parental antibody) 2nd screen 10 nM
B1	3.44 fold over 6E7 parental antibod
B2	3.18 fold over 6E7 parental antibod
B3	4.36 fold over 6E7 parental antibod
B4	4.16 fold over 6E7 parental antibod
B5	4.01 fold over 6E7 parental antibod
B6	5.81 fold over 6E7 parental antibod
B7	3.49 fold over 6E7 parental antibod
B8	6.58 fold over 6E7 parental antibod
B9	4.16 fold over 6E7 parental antibod
B10	5.22 fold over 6E7 parental antibod
B11	3.09 fold over 6E7 parental antibod
B12	5.44 fold over 6E7 parental antibod
B13	4.01 fold over 6E7 parental antibod
B14	4.52 fold over 6E7 parental antibod
B15	2.89 fold over 6E7 parental antibod
B16	2.54 fold over 6E7 parental antibod
B17	3.71 fold over 6E7 parental antibod
B18	5.48 fold over 6E7 parental antibod
B19	3.63 fold over 6E7 parental antibod
